Data from patent US20250099587A1 (KELONIA THERAPEUTICS, published 2025).
Numbering of substitutions follows the chain as printed.

B1: anti-BCMA CAR of recombinant lentivirus LV 9 (SEQ ID NO: 273) (receptor)
chain: EVQLLESGGGLVQPGGSLRLSCAASGFTFGSEAMSWVRQAPGKERELVSAISGSGEVTYYADSVKGRFTISRDNSKNTLYLQMNSLRAEDTAVYYCQRLVEAKRHWGQGTQVTVSSTTTPAPRPPTPAPTIASQPLSLRPEACRPAAGGAVHTRGLDFACDIYIWAPLAGTCGVLLLSLVITLYCKRGRKKLLYIFKQPFMRPVQTTQEEDGCSCRFPEEEEGGCELRVKFSRSADAPAYQQGQNQLYNELNLGRREEYDVLDKRRGRDPEMGGKPRRKNPQEGLYNELQKDKMAEAYSEIGMKGERRRGKGHDGLYQGLSTATKDTYDALHMQALPPR
notes: also called LV 9.1 to LV 9.9
B2: anti-BCMA CAR of recombinant lentivirus LV 12 (SEQ ID NO: 276) (receptor)
chain: EVQLLESGGGLVQPGGSLRLSCAASGFTFEDYAMSWFRQAPGKEREGVSAISGKGGSTYYADSVKGRFTISRDNSKNTLYLQMNSLRAEDTAVYYCAVLDEEAGAEGGYWGQGTQVTVSSTTTPAPRPPTPAPTIASQPLSLRPEACRPAAGGAVHTRGLDFACDIYIWAPLAGTCGVLLLSLVITLYCKRGRKKLLYIFKQPFMRPVQTTQEEDGCSCRFPEEEEGGCELRVKFSRSADAPAYQQGQNQLYNELNLGRREEYDVLDKRRGRDPEMGGKPRRKNPQEGLYNELQKDKMAEAYSEIGMKGERRRGKGHDGLYQGLSTATKDTYDALHMQALPPR
B3: anti-BCMA CAR of recombinant lentivirus LV 13 (SEQ ID NO: 277) (receptor)
chain: B2 chain with E30D, D31R, G53T, K54S, G56D
notes: also called LV 13.1 to LV 13.9
B4: anti-BCMA CAR of recombinant lentivirus LV 5 (SEQ ID NO: 263) (receptor)
chain: QVQLVESGGGLVKPGGSLRLSCAASGFTFSDYYMSWIRQAPGKGLEWVSYISSSGSTIYYADSVKGRFTISRDNAKNSLYLQMNSLRAEDTAVYYCARDQGNYGVDVWGQGTTVTVSSGGGGSGGGGSGGGGSGGGGSDIQMTQSPSTLSASVGDRVTITCRASQSISSWLAWYQQKPGKAPKLLIYEASSLESGVPSRFSGSGSGTEFTLTISSLQPDDFATYYCQQSDSHPITFGGGTKVEIKTTTPAPRPPTPAPTIASQPLSLRPEACRPAAGGAVHTRGLDFACDIYIWAPLAGTCGVLLLSLVITLYCKRGRKKLLYIFKQPFMRPVQTTQEEDGCSCRFPEEEEGGCELRVKFSRSADAPAYQQGQNQLYNELNLGRREEYDVLDKRRGRDPEMGGKPRRKNPQEGLYNELQKDKMAEAYSEIGMKGERRRGKGHDGLYQGLSTATKDTYDALHMQALPPR
notes: also called LV 5.1 to LV 5.9
B5: anti-BCMA CAR of recombinant lentivirus LV 1 (SEQ ID NO: 256) (receptor)
chain: EIVLTQSPATLSLSPGERATLSCRASQSVSSYLAWYQQKPGQAPRLLIYDASNRATGIPARFSGSGSGTDFTLTISSLEPEDFAVYYCQQRVVYPITFGGGTKVEIKGGGGSGGGGSGGGGSGGGGSQITLKESGPTLVKPTQTLTLTCTFSGFSLSTSGVGVGWIRQPPGKALEWLALIYWNDEKRYSPSLKSRLTITKDTSKNQVVLTMTNMDPVDTAVYYCARDEYGGFDIWGQGTMVTVSSTTTPAPRPPTPAPTIASQPLSLRPEACRPAAGGAVHTRGLDFACDIYIWAPLAGTCGVLLLSLVITLYCKRGRKKLLYIFKQPFMRPVQTTQEEDGCSCRFPEEEEGGCELRVKFSRSADAPAYQQGQNQLYNELNLGRREEYDVLDKRRGRDPEMGGKPRRKNPQEGLYNELQKDKMAEAYSEIGMKGERRRGKGHDGLYQGLSTATKDTYDALHMQALPPR
B6: anti-BCMA CAR of recombinant lentivirus LV 2 (SEQ ID NO: 258) (receptor)
chain: B5 chain with V92F, V93D, E185D
B7: anti-BCMA CAR of recombinant lentivirus LV 10 (SEQ ID NO: 274) (receptor)
chain: EVQLLESGGGLVQPGGSLRLSCAASGFTFESEAMSWYRQAPGKERELVSVITSEGSTYYADSVKGRFTISRDNSKNTLYLQMNSLRAEDTAVYYCAHIEWETRLNWGQGTQVTVSSTTTPAPRPPTPAPTIASQPLSLRPEACRPAAGGAVHTRGLDFACDIYIWAPLAGTCGVLLLSLVITLYCKRGRKKLLYIFKQPFMRPVQTTQEEDGCSCRFPEEEEGGCELRVKFSRSADAPAYQQGQNQLYNELNLGRREEYDVLDKRRGRDPEMGGKPRRKNPQEGLYNELQKDKMAEAYSEIGMKGERRRGKGHDGLYQGLSTATKDTYDALHMQALPPR
B8: anti-BCMA CAR of recombinant lentivirus LV 7 (SEQ ID NO: 268) (receptor)
chain: DIQMTQSPSSLSASVGDRVTITCRASQSISSYLNWYQQKPGKAPKLLIYAASSLQSGVPSRFSGSGSGTDFTLTISSLQPEDFATYYCQQAHSSPITFGGGTKVEIKGGGGSGGGGSGGGGSGGGGSEVQLLESGGGLVQPGGSLRLSCAASGFTFSNYAMSWVRQAPGKGLEWVSAISGSGGSTYYADSVKGRFTISRDNSKNTLYLQMNSLRAEDTAVYYCARPGDGYYEGVYFDYWGQGTLVTVSSTTTPAPRPPTPAPTIASQPLSLRPEACRPAAGGAVHTRGLDFACDIYIWAPLAGTCGVLLLSLVITLYCKRGRKKLLYIFKQPFMRPVQTTQEEDGCSCRFPEEEEGGCELRVKFSRSADAPAYQQGQNQLYNELNLGRREEYDVLDKRRGRDPEMGGKPRRKNPQEGLYNELQKDKMAEAYSEIGMKGERRRGKGHDGLYQGLSTATKDTYDALHMQALPPR
B9: anti-BCMA CAR of recombinant lentivirus LV 15 (SEQ ID NO: 279) (receptor)
chain: EVQLLESGGGLVQPGGSLRLSCAASGFTFDSYTMSWYRQAPGKERELVSAISGHGDSTYYADSVKGRFTISRDNSKNTLYLQMNSLRAEDTAVYYCTRISITTEWLAGDYWGQGTQVTVSSTTTPAPRPPTPAPTIASQPLSLRPEACRPAAGGAVHTRGLDFACDIYIWAPLAGTCGVLLLSLVITLYCKRGRKKLLYIFKQPFMRPVQTTQEEDGCSCRFPEEEEGGCELRVKFSRSADAPAYQQGQNQLYNELNLGRREEYDVLDKRRGRDPEMGGKPRRKNPQEGLYNELQKDKMAEAYSEIGMKGERRRGKGHDGLYQGLSTATKDTYDALHMQALPPR
B10: anti-BCMA CAR of recombinant lentivirus LV 3 (SEQ ID NO: 259) (receptor)
chain: QVQLVESGGGVVQPGRSLRLSCAASGFTFSSYGMHWVRQAPGKGLEWVAVISYEGSNKYYADSVKGRFTISRDNSKNTLYLQMNSLRAEDTAVYYCARELGDGMDVWGQGTTVTVSSGGGGSGGGGSGGGGSGGGGSEIVLTQSPATLSLSPGERATLSCRASQSVSSYLAWFQQKPGQAPRLLIYDASNRATGIPARFSGSGSGTDFTLTISSLEPEDFAVYYCQQRVDLWTFGGGTKVEIKTTTPAPRPPTPAPTIASQPLSLRPEACRPAAGGAVHTRGLDFACDIYIWAPLAGTCGVLLLSLVITLYCKRGRKKLLYIFKQPFMRPVQTTQEEDGCSCRFPEEEEGGCELRVKFSRSADAPAYQQGQNQLYNELNLGRREEYDVLDKRRGRDPEMGGKPRRKNPQEGLYNELQKDKMAEAYSEIGMKGERRRGKGHDGLYQGLSTATKDTYDALHMQALPPR
notes: also called LV 3.1 to LV 3.9
B11: anti-BCMA CAR of recombinant lentivirus LV 18 (SEQ ID NO: 283) (receptor)
chain: EVQLLESGGGLVQPGGSLRLSCAASGFTFSSEGMSWVRQAPGKERELVSAISGSGDHTYYADSVRGRFTISRDNSKNTLYLQMNSLRAEDTAVYYCNALEGGPTTAIQPGGPDYWGQGTQVTVSSTTTPAPRPPTPAPTIASQPLSLRPEACRPAAGGAVHTRGLDFACDIYIWAPLAGTCGVLLLSLVITLYCKRGRKKLLYIFKQPFMRPVQTTQEEDGCSCRFPEEEEGGCELRVKFSRSADAPAYQQGQNQLYNELNLGRREEYDVLDKRRGRDPEMGGKPRRKNPQEGLYNELQKDKMAEAYSEIGMKGERRRGKGHDGLYQGLSTATKDTYDALHMQALPPR
B12: anti-BCMA CAR of recombinant lentivirus LV 8 (SEQ ID NO: 270) (receptor)
chain: DIQMTQSPSSLSASVGDRVTITCQASQDIANYLNWYQQKPGKAPKLLIYDASNLETGVPSRFSGSGSGTDFTFTISSLQPEDIATYYCQQHFNLPLTFGGGTKVEIKGGGGSGGGGSGGGGSGGGGSQITLKESGPTLVKPTQTLTLTCTFSGFSLSTSGVGVGWIRQPPGKALEWLALIYWNDEKRYSPSLKSRLTITKDTSKNQVVLTMTNMDPVDTAVYYCAREGSHDYKSSNWFDPWGQGTLVTVSSTTTPAPRPPTPAPTIASQPLSLRPEACRPAAGGAVHTRGLDFACDIYIWAPLAGTCGVLLLSLVITLYCKRGRKKLLYIFKQPFMRPVQTTQEEDGCSCRFPEEEEGGCELRVKFSRSADAPAYQQGQNQLYNELNLGRREEYDVLDKRRGRDPEMGGKPRRKNPQEGLYNELQKDKMAEAYSEIGMKGERRRGKGHDGLYQGLSTATKDTYDALHMQALPPR
notes: also called LV 8.1 to LV 8.9
B13: anti-BCMA CAR of recombinant lentivirus LV 11 (SEQ ID NO: 275) (receptor)
chain: EVQLLESGGGLVQPGGSLRLSCAASGFTFDEYTMHWFRQAPGKEREFVSAISGGGSETYYADSVKGRFTISRDNSKNTLYLQMNSLRAEDTAVYYCAAGGEEAGVGYWGQGTQVTVSSTTTPAPRPPTPAPTIASQPLSLRPEACRPAAGGAVHTRGLDFACDIYIWAPLAGTCGVLLLSLVITLYCKRGRKKLLYIFKQPFMRPVQTTQEEDGCSCRFPEEEEGGCELRVKFSRSADAPAYQQGQNQLYNELNLGRREEYDVLDKRRGRDPEMGGKPRRKNPQEGLYNELQKDKMAEAYSEIGMKGERRRGKGHDGLYQGLSTATKDTYDALHMQALPPR

biological target: T1, recombinant, phycoerythrin (PE) labeled, BCMA extracellular domain-FC fusion protein (Homo sapiens (Human), UniProt Q02223 1-54, phycoerythrin (PE) label); experiment: flow cytometry of transduced PBMCs stained with BCMA-PE (PE-labeled BCMA extracellular domain-Fc)
T1 construct: The whole entry is named here; only the extracellular domain stood in the assay; also called BCMA-PE; not shown: Fc part of the staining reagent
T1 sequence: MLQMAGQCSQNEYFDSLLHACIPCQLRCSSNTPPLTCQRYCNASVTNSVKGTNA
Procedure: 5×10⁵ human PBMCs were plated in each well of a 24-well plate. Cells were transduced with recombinant lentiviruses LV 1 to LV 19 at a MOI 2 based on the Jurkat functional titer, or a 0.5 mL volumetric transduction if MOI 2 was not achievable. Seven days post-transduction, PBMCs were harvested and stained with BCMA-PE and analyzed by flow cytometry to assess the percentage of anti-BCMA CAR expressing cells. FIG. 2B.

Binder | binding result
B1 | binds
B2 | binds
B3 | binds
B4 | binds
B5 | binds
B6 | binds
B7 | binds
B8 | binds
B9 | binds
B10 | binds
B11 | binds
B12 | binds
B13 | binds
